How the values were obtained:
[1] = target: UL9-COOH (C-terminal 317 aa of HSV UL9) (Herpes simplex virus 1, UniProt P10193 P10193:535-851); assay: EMSA; dissociation time at 4 C, competition with SEQ 16; 20 mM HEPES pH 7.2, 50 mM KCl, 1 mM DTT; details: tags: GST fusion from pGEX-2T, thrombin cleaved; crude E. coli extracts also used; label: 32P
[2] = target: UL9 full length (Herpes simplex virus 1, UniProt P10193 P10193:1-851); assay: EMSA; dissociation time at 4 C, competition with SEQ 16; details: protein: extract; tags: baculovirus/Sf9 expressed, partially purified extract; label: 32P
Sequence of UL9 full length (P10193 whole entry, one chain of several): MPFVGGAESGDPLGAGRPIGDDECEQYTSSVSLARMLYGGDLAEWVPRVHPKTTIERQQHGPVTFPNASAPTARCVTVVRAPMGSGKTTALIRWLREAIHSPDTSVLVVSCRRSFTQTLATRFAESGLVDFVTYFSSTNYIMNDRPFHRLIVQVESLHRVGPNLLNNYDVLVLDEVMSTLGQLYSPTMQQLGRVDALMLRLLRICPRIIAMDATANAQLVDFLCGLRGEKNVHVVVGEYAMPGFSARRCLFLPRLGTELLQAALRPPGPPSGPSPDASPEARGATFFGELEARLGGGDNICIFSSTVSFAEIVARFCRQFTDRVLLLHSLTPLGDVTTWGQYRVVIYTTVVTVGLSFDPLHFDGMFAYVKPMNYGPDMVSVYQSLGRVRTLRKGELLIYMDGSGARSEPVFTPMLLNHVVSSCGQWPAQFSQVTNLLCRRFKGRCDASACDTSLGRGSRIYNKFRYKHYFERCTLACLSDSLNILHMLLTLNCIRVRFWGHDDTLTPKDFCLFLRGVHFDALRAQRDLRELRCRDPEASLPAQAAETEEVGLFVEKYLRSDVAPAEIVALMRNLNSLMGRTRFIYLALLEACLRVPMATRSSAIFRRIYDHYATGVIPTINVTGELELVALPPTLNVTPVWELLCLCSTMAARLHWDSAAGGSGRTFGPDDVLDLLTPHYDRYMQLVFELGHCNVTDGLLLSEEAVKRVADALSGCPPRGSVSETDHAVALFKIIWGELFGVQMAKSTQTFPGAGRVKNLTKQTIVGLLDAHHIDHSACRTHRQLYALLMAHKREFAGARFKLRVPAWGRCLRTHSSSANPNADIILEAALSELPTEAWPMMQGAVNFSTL

Sequence of UL9-COOH (C-terminal 317 aa of HSV UL9) (P10193 535-851, one chain of several): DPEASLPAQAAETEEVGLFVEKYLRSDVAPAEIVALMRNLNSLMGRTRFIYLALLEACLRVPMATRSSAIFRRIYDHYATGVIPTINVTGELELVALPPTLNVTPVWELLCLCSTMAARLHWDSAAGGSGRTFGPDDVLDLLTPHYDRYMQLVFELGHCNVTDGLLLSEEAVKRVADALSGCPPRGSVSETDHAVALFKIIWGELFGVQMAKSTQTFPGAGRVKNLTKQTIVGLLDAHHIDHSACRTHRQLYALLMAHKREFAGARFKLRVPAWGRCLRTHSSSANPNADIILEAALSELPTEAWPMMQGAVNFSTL

B1: FIG. 4 HSV oriS oligonucleotide (dsDNA)
DNA 1: AAGTGAGAATTCGAAGCGTTCGCACTTCGTCCCAAT
DNA 2: ATTGGGACGAAGTGCGAACGCTTCGAATTCTCACTT
Binder B1 has a koff [1] of roughly 4 h and a koff [2] of roughly 4 h.
